According to publication PMC9352680, “A comprehensive thermodynamic model for RNA binding by the Saccharomyces cerevisiae Pumilio protein PUF4”:

T1: PUF4 RNA-binding domain (Saccharomyces cerevisiae, UniProt P25339 537-888)
T1 sequence: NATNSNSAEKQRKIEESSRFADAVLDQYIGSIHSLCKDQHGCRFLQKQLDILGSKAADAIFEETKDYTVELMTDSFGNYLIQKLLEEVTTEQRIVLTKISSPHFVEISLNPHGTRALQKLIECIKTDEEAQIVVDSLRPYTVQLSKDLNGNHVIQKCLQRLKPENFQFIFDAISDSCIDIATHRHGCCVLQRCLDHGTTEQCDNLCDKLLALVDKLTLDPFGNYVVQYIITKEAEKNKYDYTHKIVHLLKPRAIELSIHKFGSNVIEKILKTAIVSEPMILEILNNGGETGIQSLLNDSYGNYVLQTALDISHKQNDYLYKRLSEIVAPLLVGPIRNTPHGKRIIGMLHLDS


Target: T1, PUF4 RNA-binding domain
Test: Mg; RNA-MaP; 20 mM Na-HEPES pH 7.4, 30 mM KOAc, 0.75 mM MgCl2, 0.1% Tween-20, 5% glycerol, 0.1 mg/mL BSA, 2 mM DTT; 25 C; 0.0125-409.6 nM protein
Details: tags: N-His6-TEV cleaved; C-SNAP kept, Cy3B-labelled; label: tethered on chip by stalled RNA polymerase

Binder | Kd [nM]
UCUCUUUGUAGCCCAAUCUCUU (ssRNA) [Ic_S1_P5E.1_K5.1_C5.1_H5.1_A5.1_[T5G]_[T6C]_[A7C]_F5.1_[T8C]_[T9A]_T5.1] | > 2300
UCUCUUUGACUAUAUCUCUU (ssRNA) [Ib_S1_P3E.1_K3.1_C3.1_H3.1_[T3A]_[A4C]_A3.1_F3.1_T3.1] | > 2300
UCUCUUUGUAAUACCUUCUCUU (ssRNA) [Ic_S1_P5E.1_K5.1_C5.1_H5.1_A5.1_[T5A]_F5.1_[T8C]_[T9C]_[A10T]_T5.1] | 690
UCUCUUUGUAUUGGUUUCUCUU (ssRNA) [Ic_S1_P5E.1_K5.1_C5.1_H5.1_A5.1_[A7G]_F5.1_[T8G]_[A10T]_T5.1] | 711
UCUCUUUGUACCCUUUUCUCUU (ssRNA) [Ic_S1_P5E.1_K5.1_C5.1_H5.1_A5.1_[T5C]_[T6C]_[A7C]_F5.1_[A10T]_T5.1] | 35.9
UCUCUUUGUAAUAACUUCUCUU (ssRNA) [Ic_S1_P5E.1_K5.1_C5.1_H5.1_A5.1_[T5A]_F5.1_[T8A]_[T9C]_[A10T]_T5.1] | 1100
UCUCUUUGUAAACCGCUCUCUU (ssRNA) [Ic_S1_P5E.1_K5.1_C5.1_H5.1_A5.1_[T5A]_[T6A]_[A7C]_F5.1_[T8C]_[T9G]_[A10C]_T5.1] | 625
UCUCUUUGUAUCGAUCUCUCUU (ssRNA) [Ic_S1_P5E.1_K5.1_C5.1_H5.1_A5.1_[T6C]_[A7G]_F5.1_[T8A]_[A10C]_T5.1] | 1870
UCUCUUUGUAAUUCACUCUCUU (ssRNA) [Ic_S1_P5E.1_K5.1_C5.1_H5.1_A5.1_[T5A]_[A7T]_F5.1_[T8C]_[T9A]_[A10C]_T5.1] | 734
UCUCUUUGUAUGCCAUUCUCUU (ssRNA) [Ic_S1_P5E.1_K5.1_C5.1_H5.1_A5.1_[T6G]_[A7C]_F5.1_[T8C]_[T9A]_[A10T]_T5.1] | 100
UCUCUUUGUAUACCCGUCUCUU (ssRNA) [Ic_S1_P5E.1_K5.1_C5.1_H5.1_A5.1_[T6A]_[A7C]_F5.1_[T8C]_[T9C]_[A10G]_T5.1] | 675
UCUCUUUGUAUGACCCUCUCUU (ssRNA) [Ic_S1_P5E.1_K5.1_C5.1_H5.1_A5.1_[T6G]_F5.1_[T8C]_[T9C]_[A10C]_T5.1] | 2180
UCUCUUUGUAGCUUGAUCUCUU (ssRNA) [Ic_S1_P5E.1_K5.1_C5.1_H5.1_A5.1_[T5G]_[T6C]_[A7T]_F5.1_[T9G]_T5.1] | 651
UCUCUUUGUAAUCAUCUCUCUU (ssRNA) [Ic_S1_P5E.1_K5.1_C5.1_H5.1_A5.1_[T5A]_[A7C]_F5.1_[T8A]_[A10C]_T5.1] | 482
UCUCUUUGUAACACCAUCUCUU (ssRNA) [Ic_S1_P5E.1_K5.1_C5.1_H5.1_A5.1_[T5A]_[T6C]_F5.1_[T8C]_[T9C]_T5.1] | 111
UCUCUUUGUAUUUUCUUCUCUU (ssRNA) [Ic_S1_P5E.1_K5.1_C5.1_H5.1_A5.1_[A7T]_F5.1_[T9C]_[A10T]_T5.1] | 34.8

Binder | Kd [nM]
UCUCUUGGUACAUAUCUCUU (ssRNA) [Ib_S1_P3E.1_K3.1_C3.1_H3.1_[T1G]_A3.1_[T5C]_F3.1_T3.1] | 1550
UCUCUUUGUACCCCUCUCUCUU (ssRNA) [Ic_S1_P5E.1_K5.1_C5.1_H5.1_A5.1_[T5C]_[T6C]_[A7C]_F5.1_[T8C]_[A10C]_T5.1] | 1240
UCUCUUUGUAAAUACUUCUCUU (ssRNA) [Ic_S1_P5E.1_K5.1_C5.1_H5.1_A5.1_[T5A]_[T6A]_[A7T]_F5.1_[T8A]_[T9C]_[A10T]_T5.1] | 37.4
UCUCUUUGUACUUGUUUCUCUU (ssRNA) [Ic_S1_P5E.1_K5.1_C5.1_H5.1_A5.1_[T5C]_[A7T]_F5.1_[T8G]_[A10T]_T5.1] | 87.4
UCUCUUUGUACCUUAGUCUCUU (ssRNA) [Ic_S1_P5E.1_K5.1_C5.1_H5.1_A5.1_[T5C]_[T6C]_[A7T]_F5.1_[T9A]_[A10G]_T5.1] | 2.41
UCUCUUUGUACCUAGCUCUCUU (ssRNA) [Ic_S1_P5E.1_K5.1_C5.1_H5.1_A5.1_[T5C]_[T6C]_[A7T]_F5.1_[T8A]_[T9G]_[A10C]_T5.1] | 114
UCUCUUUGUACCACCGUCUCUU (ssRNA) [Ic_S1_P5E.1_K5.1_C5.1_H5.1_A5.1_[T5C]_[T6C]_F5.1_[T8C]_[T9C]_[A10G]_T5.1] | 821
UCUCUUUGUACCUGCUUCUCUU (ssRNA) [Ic_S1_P5E.1_K5.1_C5.1_H5.1_A5.1_[T5C]_[T6C]_[A7T]_F5.1_[T8G]_[T9C]_[A10T]_T5.1] | 378
UCUCUUUGUAAUCCGCUCUCUU (ssRNA) [Ic_S1_P5E.1_K5.1_C5.1_H5.1_A5.1_[T5A]_[A7C]_F5.1_[T8C]_[T9G]_[A10C]_T5.1] | 1660
UCUCUUUGUAUCCCGCUCUCUU (ssRNA) [Ic_S1_P5E.1_K5.1_C5.1_H5.1_A5.1_[T6C]_[A7C]_F5.1_[T8C]_[T9G]_[A10C]_T5.1] | 1690
UCUCUUUGUAAUUCCUUCUCUU (ssRNA) [Ic_S1_P5E.1_K5.1_C5.1_H5.1_A5.1_[T5A]_[A7T]_F5.1_[T8C]_[T9C]_[A10T]_T5.1] | 448
UCUCUUUGUAUCGCCAUCUCUU (ssRNA) [Ic_S1_P5E.1_K5.1_C5.1_H5.1_A5.1_[T6C]_[A7G]_F5.1_[T8C]_[T9C]_T5.1] | 919
UCUCUUUGUAUACGUUUCUCUU (ssRNA) [Ic_S1_P5E.1_K5.1_C5.1_H5.1_A5.1_[T6A]_[A7C]_F5.1_[T8G]_[A10T]_T5.1] | 43.4
UCUCUUUGUAACCGGUUCUCUU (ssRNA) [Ic_S1_P5E.1_K5.1_C5.1_H5.1_A5.1_[T5A]_[T6C]_[A7C]_F5.1_[T8G]_[T9G]_[A10T]_T5.1] | > 2300
UCUCUUUGUAUAUUCCUCUCUU (ssRNA) [Ic_S1_P5E.1_K5.1_C5.1_H5.1_A5.1_[T6A]_[A7T]_F5.1_[T9C]_[A10C]_T5.1] | 5.93
UCUCUUUGUACUCUACUCUCUU (ssRNA) [Ic_S1_P5E.1_K5.1_C5.1_H5.1_A5.1_[T5C]_[A7C]_F5.1_[T9A]_[A10C]_T5.1] | 4.81
